The text below walks through data of PMC10082787, “The IgG4 hinge with CD28 transmembrane domain improves VHH-based CAR T cells targeting a membrane-distal epitope of GPC1 in pancreatic cancer” (Nature Communications, 2023).

The labels stand for the following.
B1: D4 dromedary camel VHH nanobody (VHH)
VHH: QVQLVESGGGLVQPGGSLRLSCVASGYSYSIGYMAWFRQAPGKERAWVASRYTGDGGAVFDDAVKGRFTTSQESAGNTFDLQMDSLKPEDTAMYYCAAKGPGFGRWEYWGRGTQVTVSS
notes: D4 VHH; His tag used to load the Ni-NTA biosensor; FLAG used for detection in ELISA and flow cytometry; also called D4 antibody; D4 VHH
B2: clone 1–12-IgG4H-CD28TM CAR (other)
VH: AVTLDESGGGLQTPGRALSLVCKASGFTFSRYAMYWVRQAPGKGLEFVAGIGNTGRYTGYGSAVKGRATISRDSGQSTVRLQLNNLRAEDTGNYYCAKSVSPYCCDAADIDAWGHGTEVIVST
VL: ALTQPASVSANPGETVKITCSGGSSGYAYGWYQQKSPGSAPVTLLYSNNNRPSDIPSRFSGSKSGSTATLTITGVQAEDEAVYFCGSVDSSSYAGIFGAGTTLTV
notes: scFv of the anti-GPC1 mAb clone 1–12; CD28 transmembrane domain (CD28TM); 4-1BB costimulatory domain; intracellular CD3ζ; also called clone 1–12 CAR; source: human T cells from PBMCs, lentivirally transduced; on cells
B3: HM2 mouse monoclonal antibody (antibody, V domains shown)
VH: EVQLQQSGAELVRPGASVKLSCTASGFNIKDDYMHWVKQRPEQGLEWIGWIDPENGDTEYASKFQGKATITADTSSNTAYLQLSSLTSEDTAVYYCTRSSVGYWGQGTTLTVSS
VL: DVVMTQTPLSLPVSLGDQASISCRSSQSLVHSNGNTYLHWYLQKPGQSPKLLIYKVSNRFSGVPDRFSGSGSGTYFTLKISRVEAEDLGVYFCSQRTHVPYTFGGGTKLEIK
notes: heavy chain of mouse mAb HM2; light chain of mouse mAb HM2; Raised by immunising mice with the C-lobe region of GPC1; also called HM2 mAb; HM2 clone; source: mouse hybridoma; in supernatant and purified
B4: GPC1 protein (negative stain EM) (natural protein)
chain: DPASKSRSCGEVRQIYGAKGFSLSDVPQAEISGEHLRICPQGYTCCTSEMEENLANRSHAELETALRDSSRVLQAMLATQLRSFDDHFQHLLNDSERTLQATFPGAFGELYTQNARAFRDLYSELRLYYRGANLHLEETLAEFWARLLERLFKQLHPQLLLPDDYLDCLGKQAEALRPFGEAPRELRLRATRAFVAARSFVQGLGVASDVVRKVAQVPLGPECSRAVMKLVYCAHCLGVPGARPCPDYCRNVLKGCLANQADLDAEWRNLLDSMVLITDKFWGTSGVESVIGSVHTWLAEAINALQDNRDTLTAKVIQGCGNPKVNPQGPGPEEKRRRGKLAPRERPPSGTLEKLVSEAKAQLRDVQDFWISLPGTLCSEKMALSTASDDRCWNGMARGRYLPEVMGDGLANQINNPEVEVDITKPDMTIRQQIMQLKIMTNRLRSAYNGNDVDFQDASDDGSGSGSGDGCLDDLCSRKVSRKSSSSRTPLTHALPGLSEQEGQKTS
notes: glypican-1 protein mixed 1:1 with HM2 Fab or D4-LR for negative stain EM; It may be the His-tagged or the hFc-fused protein of the other experiments
B5: recombinant human GPC1-hFc protein (Fc fusion)
chain: B4 chain
notes: glypican-1, human, fused to human Fc

For assay [1], the target named is B5. As to the kind of experiment: BLI; Octet RED96; His-tagged D4 loaded on Ni-NTA biosensor, serially diluted human GPC1-hFc in solution. Particulars: both partners purified. (BLI is a label-free optical method that tracks binding on a fibre tip over time.)
In assay [2] the target is T1, GPC1 peptide 14 (Homo sapiens, UniProt P35052).
T1 construct: peptide no; 14 of 53 overlapping GPC1 peptides, 18 amino acids long, 9 overlapped with the adjacent peptide; source: synthetic peptide (Genscript)
T1 chain: FRDLYSELRLYYRGANLH
Kind of assay: ELISA; 53 overlapping 18-mer GPC1 peptides coated at 5 μg/ml in PBS overnight; 1 μg/ml of HM2 or D4 added. The following applies: both partners purified.

Assay [3] addresses T2, GPC1 peptide 15 (Homo sapiens, UniProt P35052).
T2 construct: peptide no; 15 of 53 overlapping GPC1 peptides, 18 amino acids long, 9 overlapped with the adjacent peptide; source: synthetic peptide (Genscript)
T2 chain: LYYRGANLHLEETLAEFW
The description is as above. The following applies: both partners purified.

For assay [4], the target named is T3, human glypican-2 (GPC2), recombinant protein (Homo sapiens (Human)., UniProt Q8N158).
T3 construct: glypican-2, human, recombinant protein coated on ELISA plates; source: bought: R&D Systems
T3 sequence (Q8N158 24-554): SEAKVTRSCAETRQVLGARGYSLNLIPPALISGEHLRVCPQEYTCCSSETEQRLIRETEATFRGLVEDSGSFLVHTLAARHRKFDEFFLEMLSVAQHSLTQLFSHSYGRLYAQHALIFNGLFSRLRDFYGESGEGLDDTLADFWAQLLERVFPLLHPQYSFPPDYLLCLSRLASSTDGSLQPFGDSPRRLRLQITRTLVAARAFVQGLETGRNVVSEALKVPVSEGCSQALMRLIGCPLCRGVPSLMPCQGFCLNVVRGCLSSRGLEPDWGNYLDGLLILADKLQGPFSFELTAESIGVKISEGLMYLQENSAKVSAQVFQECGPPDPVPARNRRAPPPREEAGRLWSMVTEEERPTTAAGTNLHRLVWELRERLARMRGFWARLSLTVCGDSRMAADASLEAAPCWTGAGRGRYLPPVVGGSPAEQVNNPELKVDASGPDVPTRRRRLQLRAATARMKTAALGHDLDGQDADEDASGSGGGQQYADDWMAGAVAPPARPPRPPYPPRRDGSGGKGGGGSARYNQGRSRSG
Kind of assay: ELISA; D4 nanobody at 1 μg/ml on human GPC1 through GPC6 and mouse GPC1 proteins; detected with anti-FLAG-HRP; the legend calls it monoclonal phage ELISA. The following applies: both partners purified. For orientation: ELISA stands for enzyme-linked immunosorbent assay.

In assay [5] the target is T4, human glypican-3 (GPC3), recombinant protein (Homo sapiens, UniProt P51654).
T4 construct: glypican-3, human, recombinant protein coated on ELISA plates; source: bought: R&D Systems
T4 sequence (P51654 25-580): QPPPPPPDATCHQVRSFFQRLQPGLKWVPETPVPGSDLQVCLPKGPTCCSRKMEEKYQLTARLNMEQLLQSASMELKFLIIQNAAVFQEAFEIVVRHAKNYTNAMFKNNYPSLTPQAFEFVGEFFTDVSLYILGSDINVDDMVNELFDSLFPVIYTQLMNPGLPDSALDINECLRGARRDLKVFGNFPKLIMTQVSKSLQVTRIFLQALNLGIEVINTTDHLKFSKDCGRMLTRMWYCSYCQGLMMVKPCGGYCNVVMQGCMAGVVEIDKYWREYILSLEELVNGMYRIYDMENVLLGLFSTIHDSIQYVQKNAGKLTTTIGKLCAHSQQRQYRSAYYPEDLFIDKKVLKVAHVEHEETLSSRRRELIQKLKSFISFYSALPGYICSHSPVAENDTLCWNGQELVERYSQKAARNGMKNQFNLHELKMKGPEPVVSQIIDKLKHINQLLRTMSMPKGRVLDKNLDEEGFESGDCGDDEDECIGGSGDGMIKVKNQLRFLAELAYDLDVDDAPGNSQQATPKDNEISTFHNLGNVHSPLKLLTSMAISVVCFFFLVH
The assay is described as above. Particulars: both partners purified.

Assay [6] concerns the target T5, human glypican-4 (GPC4), recombinant protein (Homo sapiens, UniProt O75487).
T5 construct: glypican-4, human, recombinant protein coated on ELISA plates; source: bought: R&D Systems
The description is as above. Particulars: both partners purified.

Assay [7] has as its target T6, human glypican-5 (GPC5), recombinant protein (Homo sapiens, UniProt P78333).
T6 construct: glypican-5, human, recombinant protein coated on ELISA plates; source: bought: R&D Systems
Described as above. Particulars: both partners purified.

Assay [8] has as its target T7, human glypican-6 (GPC6), recombinant protein (Homo sapiens (Human)., UniProt Q9Y625).
T7 construct: glypican-6, human, recombinant protein coated on ELISA plates; source: bought: R&D Systems
The description is as above. The following applies: both partners purified.

The target in assay [9] is T8, mouse glypican-1 (GPC1) protein (Mus musculus (Mouse)., UniProt Q9QZF2).
T8 construct: glypican-1, mouse, protein used in the ELISA of D4; also called mouse GPC1; murine GPC1
The description is as above. The following applies: both partners purified.

In assay [10] the target is B5. As to the kind of experiment: flow cytometry on cells; CAR T cells stained with GPC1-hFc at 5 μg/ml and goat anti-human IgG-PE. Particulars: one partner purified. (Flow cytometry measures light scatter and fluorescence of single cells or particles in a stream.)
Assay [11] addresses T9, GPC1 peptide 53 (Homo sapiens, UniProt P35052).
T9 construct: peptide no; 53 of 53 overlapping GPC1 peptides, 18 amino acids long, 9 overlapped with the adjacent peptide; source: synthetic peptide (Genscript)
T9 chain: DGCLDDLCSRKVSRKSSS
As to the kind of experiment: ELISA; 53 overlapping 18-mer GPC1 peptides coated at 5 μg/ml in PBS overnight; 1 μg/ml of HM2 or D4 added. Particulars: both partners purified.

Assay [12] deals with T10, His-tagged GPC1 protein (Homo sapiens, UniProt P35052).
T10 construct: glypican-1, human, His-tagged protein immobilised on the Ni-NTA biosensor; also called human GPC1
T10 sequence (P35052 whole entry, looked up): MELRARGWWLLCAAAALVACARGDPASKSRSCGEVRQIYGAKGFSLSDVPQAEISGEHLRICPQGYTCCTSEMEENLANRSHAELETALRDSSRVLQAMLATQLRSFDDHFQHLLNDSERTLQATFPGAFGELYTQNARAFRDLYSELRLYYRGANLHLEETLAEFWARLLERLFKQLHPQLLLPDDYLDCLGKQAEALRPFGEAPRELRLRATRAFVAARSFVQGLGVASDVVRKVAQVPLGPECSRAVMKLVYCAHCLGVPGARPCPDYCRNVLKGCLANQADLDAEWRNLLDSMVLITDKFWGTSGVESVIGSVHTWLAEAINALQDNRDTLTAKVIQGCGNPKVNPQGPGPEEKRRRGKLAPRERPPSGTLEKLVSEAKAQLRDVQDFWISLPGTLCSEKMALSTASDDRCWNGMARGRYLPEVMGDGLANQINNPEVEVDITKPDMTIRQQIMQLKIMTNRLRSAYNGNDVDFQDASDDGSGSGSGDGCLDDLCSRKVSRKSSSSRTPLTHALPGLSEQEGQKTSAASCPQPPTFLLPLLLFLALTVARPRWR
Kind of assay: BLI; Octet RED96; His-tagged GPC1 immobilised on Ni-NTA biosensor, HM2 in solution; association 600 s, dissociation 1800 s. The following applies: both partners purified.

For assay [13], the target named is T3, human glypican-2 (GPC2), recombinant …. Kind of assay: ELISA; plates coated with human GPC1 through GPC6; mouse hybridoma supernatant with 1 μg/ml of each mAb; detected with goat anti-mouse IgG-HRP. The following applies: one partner purified.
Assay [14] concerns the target T4, human glypican-3 (GPC3), recombinant …. The assay is described as above. The following applies: one partner purified.
The target of assay [15] is T5, human glypican-4 (GPC4), recombinant …. Described as above. Particulars: one partner purified.
The target of assay [16] is T6, human glypican-5 (GPC5), recombinant …. Described as above. Particulars: one partner purified.
For assay [17], the target named is T7, human glypican-6 (GPC6), recombinant …. The description is as above. Particulars: one partner purified.
Assay [18] concerns the target D4-LR immunotoxin (Camelus dromedarius | Pseudomonas). Kind of assay: negative stain EM. The following applies: both partners purified.
In assay [19] the target is T11, D4-CD8H-CD8TM CAR (Camelus dromedarius | ).
T11 construct: CD8 hinge (CD8H), 45 amino acids; CD8 transmembrane region (CD8TM); 4-1BB costimulatory domain; intracellular CD3ζ; also called D4 CAR; pMH305; source: human T cells from PBMCs, lentivirally transduced; on cells and in lysate
As to the kind of experiment: flow cytometry on cells; CAR T cells stained with GPC1-hFc at 5 μg/ml and goat anti-human IgG-PE. Particulars: one partner purified.

Assay [20] has as its target T12, D4-CD8H-CD28TM CAR (Camelus dromedarius | ).
T12 construct: CD8 hinge (CD8H), 45 amino acids; CD28 transmembrane domain (CD28TM); 4-1BB costimulatory domain; intracellular CD3ζ; also called pMH402; source: human T cells from PBMCs, lentivirally transduced; on cells and in lysate
Described as above. Particulars: one partner purified.

For assay [21], the target named is T13, D4-IgG4H-CD8TM CAR (Camelus dromedarius | human | ).
T13 construct: CD8 transmembrane region (CD8TM); 4-1BB costimulatory domain; intracellular CD3ζ; Dimer by non-reducing western blot; also called pMH382; source: human T cells from PBMCs, lentivirally transduced; on cells and in lysate
The description is as above. The following applies: one partner purified.

Assay [22] has as its target T14, D4-IgG4H-CD28TM CAR (Camelus dromedarius | human | ).
T14 construct: CD28 transmembrane domain (CD28TM); 4-1BB costimulatory domain; intracellular CD3ζ; Dimer by non-reducing western blot; also called D4-IgG4H only CAR; D4-IgG4H CAR; source: human T cells from PBMCs, lentivirally transduced; on cells and in lysate
Described as above. The following applies: one partner purified.

T7 sequence (Q9Y625 24-529): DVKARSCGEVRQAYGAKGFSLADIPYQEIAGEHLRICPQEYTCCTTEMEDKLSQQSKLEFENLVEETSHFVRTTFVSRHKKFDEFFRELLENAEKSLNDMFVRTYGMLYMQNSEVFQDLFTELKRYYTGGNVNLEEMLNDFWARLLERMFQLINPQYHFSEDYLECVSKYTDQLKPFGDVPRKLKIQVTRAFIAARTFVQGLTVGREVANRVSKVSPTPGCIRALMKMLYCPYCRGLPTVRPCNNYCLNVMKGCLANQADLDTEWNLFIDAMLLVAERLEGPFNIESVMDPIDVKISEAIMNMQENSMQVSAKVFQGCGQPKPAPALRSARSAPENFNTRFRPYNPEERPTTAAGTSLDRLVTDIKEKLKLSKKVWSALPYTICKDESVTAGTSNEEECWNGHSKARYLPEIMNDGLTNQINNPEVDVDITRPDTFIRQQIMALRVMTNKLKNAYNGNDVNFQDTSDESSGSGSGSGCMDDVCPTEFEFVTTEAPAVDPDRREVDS
T6 sequence (P78333 25-572): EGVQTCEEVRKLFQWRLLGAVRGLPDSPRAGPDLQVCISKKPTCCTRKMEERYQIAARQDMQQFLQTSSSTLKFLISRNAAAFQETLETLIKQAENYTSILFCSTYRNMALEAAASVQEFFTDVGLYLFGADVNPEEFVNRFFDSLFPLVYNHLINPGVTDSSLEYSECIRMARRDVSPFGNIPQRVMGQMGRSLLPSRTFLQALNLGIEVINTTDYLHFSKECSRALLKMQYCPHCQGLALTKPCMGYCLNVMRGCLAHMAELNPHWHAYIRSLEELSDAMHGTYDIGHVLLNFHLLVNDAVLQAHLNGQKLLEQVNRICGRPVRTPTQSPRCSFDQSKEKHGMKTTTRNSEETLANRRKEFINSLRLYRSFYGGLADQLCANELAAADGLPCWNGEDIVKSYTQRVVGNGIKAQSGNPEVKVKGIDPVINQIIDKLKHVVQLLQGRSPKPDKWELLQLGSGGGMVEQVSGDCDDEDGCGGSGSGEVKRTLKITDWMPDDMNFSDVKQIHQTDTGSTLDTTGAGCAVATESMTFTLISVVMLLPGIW
T5 sequence (O75487 19-529): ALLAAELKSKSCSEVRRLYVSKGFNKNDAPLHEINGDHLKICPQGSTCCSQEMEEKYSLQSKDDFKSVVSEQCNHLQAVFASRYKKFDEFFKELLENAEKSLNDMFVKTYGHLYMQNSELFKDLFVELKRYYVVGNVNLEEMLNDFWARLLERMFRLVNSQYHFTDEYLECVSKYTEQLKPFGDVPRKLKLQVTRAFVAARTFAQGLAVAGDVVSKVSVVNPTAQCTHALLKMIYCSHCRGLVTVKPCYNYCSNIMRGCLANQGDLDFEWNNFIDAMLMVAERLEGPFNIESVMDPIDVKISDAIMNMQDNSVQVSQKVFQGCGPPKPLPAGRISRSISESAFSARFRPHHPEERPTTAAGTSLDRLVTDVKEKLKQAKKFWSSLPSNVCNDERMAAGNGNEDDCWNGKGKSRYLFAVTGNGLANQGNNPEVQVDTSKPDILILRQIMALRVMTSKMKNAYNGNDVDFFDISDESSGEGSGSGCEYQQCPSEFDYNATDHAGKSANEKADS

For orientation: Kd means the constant that tells how readily two partners part at equilibrium. With B1, the Kd in [1] is 0.7 nM. Besides, the binding result is “binds” in assay [2]; “binds” in assay [3]; “no binding (tested: 1 μg/ml)” in assay [4]; “no binding (tested: 1 μg/ml)” in assay [5]; “no binding (tested: 1 μg/ml)” in assay [6]; “no binding (tested: 1 μg/ml)” in assay [7]. Further, the values for the binding result in [8] and in assay [9] were “no binding (tested: 1 μg/ml)” and “binds”, respectively.

B2: in assay [10], the binding result is listed as “binds”.

On to B3, for which the binding result in assay [11] is “binds”; in [13], “no binding (tested: 1 μg/ml)”; in assay [14], “no binding (tested: 1 μg/ml)”; in [15] it was “no binding (tested: 1 μg/ml)”; in [16], “no binding (tested: 1 μg/ml)”; in [17] it was “no binding (tested: 1 μg/ml)”. In addition, the Kd in assay [12] was 0.4 nM.

For B4, the binding result in assay [18] is “binds”.

As to B5, the binding result in [19], in [20], in assay [21] and in assay [22] was “binds” each time.
